Results on 3 molecules are retold here after patent US20250034271A1 (EUCURE BEIJING BIOPHARMA, published 2025).

Assay [1] has as its target T1, mouse CD40 (mCD40) on transfected CHO cells (mouse, UniProt P27512 20-289).
T1 sequence: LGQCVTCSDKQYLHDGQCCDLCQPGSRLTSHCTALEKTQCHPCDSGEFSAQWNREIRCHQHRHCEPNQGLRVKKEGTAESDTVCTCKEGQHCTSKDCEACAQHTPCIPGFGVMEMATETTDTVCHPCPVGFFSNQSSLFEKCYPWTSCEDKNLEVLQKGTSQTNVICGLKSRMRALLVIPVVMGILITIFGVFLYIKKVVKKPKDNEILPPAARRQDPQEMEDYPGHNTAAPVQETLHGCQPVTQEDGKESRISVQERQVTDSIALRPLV
Kind of assay: flow cytometry, CHO-mCD40 cells, anti-mIgG Fc-FITC. Here is the method: (§1) 25 μl CHO cells were added to each well. 25 μl purified anti-hCD40 antibodies (1 μg/ml) (7F10, 6A7, or 4H6) were added to each well and were incubated at 4° C. for 30 minutes.
(§2) After being washed with PBS (1200 rmp, 5 min) twice, 50 μl of FITC labeled anti-mouse IgG Fc antibody (anti-mIgG Fc-FITC) was added into each well 1:100 dilution, followed by incubated at 4° C. for 30 minutes, and then PBS wash (1200 rmp, 5 min). The signals for FITC were detected by flow cytometry.
In general terms: In flow cytometry, cells or beads pass a laser one at a time.

The target of assay [2] is T1, mouse CD40 (mCD40) on transfected CHO …. Kind of assay: flow cytometry, CHO-mCD40 cells, antibody 1 µg/ml, anti-mIgG Fc-FITC; x: Anti-mouse-IgG-Fc-FITC, y: SSC-H. As for the experimental part:
as §1, §2

The target in assay [3] is T2, monkey (rhesus macaque) CD40 (rmCD40) on transfected CHO cells (rhesus macaque, UniProt P25942 21-277 (human entry)).
T2 construct: also called monkey CD40
T2 chain: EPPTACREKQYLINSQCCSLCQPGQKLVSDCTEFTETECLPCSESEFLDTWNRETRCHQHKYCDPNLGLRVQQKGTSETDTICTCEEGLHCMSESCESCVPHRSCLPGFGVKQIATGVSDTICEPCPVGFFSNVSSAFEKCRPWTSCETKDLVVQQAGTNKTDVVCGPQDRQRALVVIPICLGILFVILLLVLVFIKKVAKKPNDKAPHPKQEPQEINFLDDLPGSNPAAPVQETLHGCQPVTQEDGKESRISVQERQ
Kind of assay: flow cytometry, CHO-rmCD40 cells, antibody 1 µg/ml, anti-mIgG Fc-FITC; x: Anti-mouse-IgG-Fc-FITC, y: SSC-H. Here is the method:
as §1, §2

Assay [4] addresses T3, chimeric (mouse and human) CD40 (chiCD40) on transfected CHO cells (chimeric (mouse and human)).
T3 construct: also called human-mouse chimeric CD40; chimeric CD40
The assay can be described thus: flow cytometry, CHO-chiCD40 cells, antibody 1 µg/ml, anti-mIgG Fc-FITC; x: Anti-mouse-IgG-Fc-FITC, y: SSC-H. As for the experimental part:
as §1, §2

Assay [5] concerns the target T4, human CD40 (hCD40) on transiently transfected CHO cells (human, UniProt P25942 21-277).
T4 construct: also called TNF Receptor Superfamily Member 5; TNFRSF5
The assay can be described thus: flow cytometry, CHO cells with hCD40, antibody titrated then hCD40L-hFc added (blocked ligand: hCD40L-hFc); y: hCD40 Ligand-hFc, x: Anti-mouse-IgG-Fc-PE. As for the experimental part: The anti-hCD40 antibodies were collected from mouse ascites fluid and purified by chromatography. 25 μl CHO cells transiently transfected with human CD40 were added to each well in a plate. The purified antibodies were titrated to final concentrations of 50, 5, 0.5, 0.05, and 0.005 μg/ml. The titrated antibodies were added to each well at 25 μl per well at 4° C. and incubated for 30 minutes.
hCD40 ligand-hFc was expressed by H293T cells. 50 μl of hCD40L-hFc was added to each well (1:500). The cells with hCD40L-hFc and the antibodies were incubated at 4° C. for 15 minutes.
After being washed with phosphate-buffered saline (PBS) twice, 50 μl of PE labeled anti-mouse IgG Fc antibody (anti-mIgG Fc-PE) at 1:500 dilution and FITC-labeled anti-human IgG Fc antibody (anti-hIgG Fc-FITC) at 1:100 dilution were added into each well, and incubated for 30 minutes at 4° C., followed by PBS wash. The signals for FITC and PE were determined by flow cytometry.

B1: mouse anti-hCD40 antibody 06-6A7 (antibody, V domains shown)
VH: QVQLQQPGAELVKPGASVKLSCKASGYTFISYYIYWVKQRPGQGLEWIGGINPRNGGTNFNEKFKSKATLTVDKSSSTAYMQLSSLTSEDSAVYYCTRHGNGVYWGQGTTLTVSS
VL: DVVMTQTPLSLPVSLGDQASISCRSSQSLLHSNGNTYLHWYLQKPGQSPNHLIYQVSNRFSGVPDRFSGSGSGTDFTLKISRVEAEDLGVYFCSQTTHVPWTFGGGTKLEIK
notes: Mouse antibody purified from ascites
Take B1: the binding result in assay [1] is “no binding”. In addition, the “% cells in the Anti-mouse-IgG-Fc-FITC positive gate” value in assay [2] worked out at 1.16%. In assay [3], the “% cells in the Anti-mouse-IgG-Fc-FITC positive gate” value worked out at 96.4%. The “% cells in the Anti-mouse-IgG-Fc-FITC positive gate” value in assay [4] came out at 94.6%. Further, in assay [5], the “% cells lower left (ligand- / antibody-) at 0.005µg/mL” value was 41.2%, the “% cells lower left (ligand- / antibody-) at 0.05µg/mL” value came to 14.9%, the “% cells lower left (ligand- / antibody-) at 0.5µg/mL” value was 3.18% and the “% cells lower left (ligand- / antibody-) at 5µg/mL” value amounted to 6.37%. Besides, in assay [5], the “% cells lower left (ligand- / antibody-) at 50µg/mL” value turned out to be 7.92%, the “% cells lower right (ligand- / antibody+) at 0.005µg/mL” value came to 4.1%, the “% cells lower right (ligand- / antibody+) at 0.05µg/mL” value was determined as 31.6% and the “% cells lower right (ligand- / antibody+) at 0.5µg/mL” value came to 45.1%. Moreover, in assay [5], the “% cells lower right (ligand- / antibody+) at 5µg/mL” value came to 67.8%, the “% cells lower right (ligand- / antibody+) at 50µg/mL” value was found to be 69.7%, the “% cells upper left (ligand+ / antibody-) at 0.005µg/mL” value amounted to 1.44% and the “% cells upper left (ligand+ / antibody-) at 0.05µg/mL” value turned out to be 0%. For the same molecule, in assay [5], the “% cells upper left (ligand+ / antibody-) at 0.5µg/mL” value stood at 0%, the “% cells upper left (ligand+ / antibody-) at 5µg/mL” value was 0%, the “% cells upper left (ligand+ / antibody-) at 50µg/mL” value amounted to 0.108% and the “% cells upper right (ligand+ / antibody+) at 0.005µg/mL” value is 53.2%. In assay [5], the “% cells upper right (ligand+ / antibody+) at 0.05µg/mL” value worked out at 53.5%, the “% cells upper right (ligand+ / antibody+) at 0.5µg/mL” value was determined as 51.7%, the “% cells upper right (ligand+ / antibody+) at 5µg/mL” value amounted to 25.9% and the “% cells upper right (ligand+ / antibody+) at 50µg/mL” value worked out at 22.3%.

B2: mouse anti-hCD40 antibody 03-7F10 (antibody, V domains shown)
VH: EVKLVESGGGLVQPGGSLKLSCATSGFTFSDYYMYWVRQTPEKRLEWVAYISYGGDSTFYPDTVRGRFTISRDNAKNALYLQMSRLKSEDTAVYYCARPAPSAHSYYLDYWGQGTTLTVSS
VL: DIQMTQTTSSLSASLGDRVTISCRASQDISNYLNWYQQKPDGTVKLLIYYTSRLHSGLPSRFSGSGSGTDYSLTISNLEQEDIATYYCQQGKTLPFTFASGTKLEIK
notes: as for B1
Regarding B2, the binding result in assay [1] is on record as “no binding”. The “% cells in the Anti-mouse-IgG-Fc-FITC positive gate” value in assay [2] was found to be 0.674%. Further, in assay [3], the “% cells in the Anti-mouse-IgG-Fc-FITC positive gate” value came out at 82.6%. Besides, the “% cells in the Anti-mouse-IgG-Fc-FITC positive gate” value in assay [4] came to 82.4%. Also, in assay [5], the “% cells lower left (ligand- / antibody-) at 0.005µg/mL” value was found to be 42.7%, the “% cells lower left (ligand- / antibody-) at 0.05µg/mL” value was determined as 9.95%, the “% cells lower left (ligand- / antibody-) at 0.5µg/mL” value was 7.02% and the “% cells lower left (ligand- / antibody-) at 5µg/mL” value was 12.9%. Also, in assay [5], the “% cells lower left (ligand- / antibody-) at 50µg/mL” value was 12.8%, the “% cells lower right (ligand- / antibody+) at 0.005µg/mL” value amounted to 1.99%, the “% cells lower right (ligand- / antibody+) at 0.05µg/mL” value was 32.1% and the “% cells lower right (ligand- / antibody+) at 0.5µg/mL” value came to 47.7%. Besides, in assay [5], the “% cells lower right (ligand- / antibody+) at 5µg/mL” value turned out to be 78.8%, the “% cells lower right (ligand- / antibody+) at 50µg/mL” value is 78.1%, the “% cells upper left (ligand+ / antibody-) at 0.005µg/mL” value is 4.03% and the “% cells upper left (ligand+ / antibody-) at 0.05µg/mL” value amounted to 0%. Further, in assay [5], the “% cells upper left (ligand+ / antibody-) at 0.5µg/mL” value was 0.056%, the “% cells upper left (ligand+ / antibody-) at 5µg/mL” value amounted to 0%, the “% cells upper left (ligand+ / antibody-) at 50µg/mL” value was 0% and the “% cells upper right (ligand+ / antibody+) at 0.005µg/mL” value was 51.3%. Also, in assay [5], the “% cells upper right (ligand+ / antibody+) at 0.05µg/mL” value came to 57.9%, the “% cells upper right (ligand+ / antibody+) at 0.5µg/mL” value turned out to be 45.2%, the “% cells upper right (ligand+ / antibody+) at 5µg/mL” value was determined as 8.35% and the “% cells upper right (ligand+ / antibody+) at 50µg/mL” value stood at 9.09%.

B3: mouse anti-hCD40 antibody 07-4H6 (antibody, V domains shown)
VH: EVKLQESGPSLVKPSQTLSLTCSVTGDSVSSGYWNWIRKFPGNKLEYMGFISYSGSTYYTPSLKSRISITRDTSKNQFYLQLNSVTTEDTATYFCARFRRYDDGVDYWGQGTTLTVSS
VL: DIQMTQSPSSLSASLGERVSLTCRASHEISGYLSWIQQKPDGTIKRLINAASTLASGVPKRFSGSRSGSEYSLTINSLESEDFADYYCLQYSSYPWTFGGGTKLEIK
notes: as for B1
With B3, the binding result in assay [1] is given as “no binding”. Besides, in assay [2], the “% cells in the Anti-mouse-IgG-Fc-FITC positive gate” value stood at 1.56%. Moreover, the “% cells in the Anti-mouse-IgG-Fc-FITC positive gate” value in assay [3] is 88.5%. For the same molecule, the “% cells in the Anti-mouse-IgG-Fc-FITC positive gate” value in assay [4] amounted to 87.8%. Moreover, in assay [5], the “% cells lower left (ligand- / antibody-) at 0.005µg/mL” value stood at 35.7%, the “% cells lower left (ligand- / antibody-) at 0.05µg/mL” value came to 16.8%, the “% cells lower left (ligand- / antibody-) at 0.5µg/mL” value is 11.1% and the “% cells lower left (ligand- / antibody-) at 5µg/mL” value stood at 11.4%. Moreover, in assay [5], the “% cells lower left (ligand- / antibody-) at 50µg/mL” value was 7.76%, the “% cells lower right (ligand- / antibody+) at 0.005µg/mL” value stood at 3.7%, the “% cells lower right (ligand- / antibody+) at 0.05µg/mL” value amounted to 26.9% and the “% cells lower right (ligand- / antibody+) at 0.5µg/mL” value was 63.6%. In addition, in assay [5], the “% cells lower right (ligand- / antibody+) at 5µg/mL” value amounted to 80.8%, the “% cells lower right (ligand- / antibody+) at 50µg/mL” value amounted to 83.7%, the “% cells upper left (ligand+ / antibody-) at 0.005µg/mL” value came out at 1.95% and the “% cells upper left (ligand+ / antibody-) at 0.05µg/mL” value stood at 0%. In addition, in assay [5], the “% cells upper left (ligand+ / antibody-) at 0.5µg/mL” value came out at 0%, the “% cells upper left (ligand+ / antibody-) at 5µg/mL” value stood at 0%, the “% cells upper left (ligand+ / antibody-) at 50µg/mL” value was found to be 0.185% and the “% cells upper right (ligand+ / antibody+) at 0.005µg/mL” value was 58.7%. Further, in assay [5], the “% cells upper right (ligand+ / antibody+) at 0.05µg/mL” value is 56.4%, the “% cells upper right (ligand+ / antibody+) at 0.5µg/mL” value is 25.4%, the “% cells upper right (ligand+ / antibody+) at 5µg/mL” value is 7.75% and the “% cells upper right (ligand+ / antibody+) at 50µg/mL” value was found to be 8.32%.
